Reference: patent US12497460B2, “Anti-MSR1 antibodies and methods of use thereof” (REGENERON PHARMACEUTICALS, INC., priority 2018, dated 2025)
One block for each molecule: values may come before it.

Legend:
[1] = system: HEK293.mfMSR1 cells (monkey MSR1); test: Electrochemiluminescence antibody binding assay on MSR1-expressing cells; format: cell-based, Macaca fascicularis
[2] = biological target: T1, MSR1 on differentiated THP-1 cells (Homo sapiens, UniProt P21757); test: Binding and internalization of cell-surface expressed MSR1 in differentiated THP-1 cells; format: cell-based; settings: 10 μg/mL antibody
T1 construct: endogenous in cells; host or cells: THP-1 cells differentiated with PMA
T1 sequence (P21757 1-451): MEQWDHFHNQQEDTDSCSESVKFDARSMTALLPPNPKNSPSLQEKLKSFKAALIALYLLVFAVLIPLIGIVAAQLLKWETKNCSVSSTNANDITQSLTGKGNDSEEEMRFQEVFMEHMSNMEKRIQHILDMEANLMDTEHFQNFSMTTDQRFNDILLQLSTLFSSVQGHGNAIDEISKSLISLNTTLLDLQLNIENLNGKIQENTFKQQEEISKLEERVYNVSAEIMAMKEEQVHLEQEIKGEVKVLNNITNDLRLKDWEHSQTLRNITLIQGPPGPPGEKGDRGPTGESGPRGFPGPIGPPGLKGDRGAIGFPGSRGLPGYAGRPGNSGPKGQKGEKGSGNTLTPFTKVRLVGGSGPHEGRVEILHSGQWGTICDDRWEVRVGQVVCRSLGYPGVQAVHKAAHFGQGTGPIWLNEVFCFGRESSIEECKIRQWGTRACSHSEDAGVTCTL
Procedure: Exemplary anti-MSR1 antibodies were assessed for their ability to bind and internalize MSR1 on MSR1-expressing cells.
The THP-1 cells were allowed to differentiate for 4 days at 37° C. in 5% CO2. […] The remaining two plates were incubated at 37° C. for 1 hour followed by fixation and staining for 20 minutes using a solution of 4% PFA+5 μM DRAQ5 diluted in PBS (internalization plates). After fixation, all plates were washed once with PBS. […] The remaining plates were incubated with PBS only. Confocal images were acquired on the Opera Phenix (Perkin Elmer) at 40× magnification. […] The total binding at 4° C. (RFU values of 4° C. unquenched wells), total binding at 37° C. (RFU values of 37° C. unquenched wells), the total internalized RFU, and % Internalization were determined for each antibody as shown in Table 14.
For all calculations, background fluorescence from unstained wells was subtracted from every well. Total internalized RFU was calculated as follows: Total RFU of 37° C. unquenched samples−Surface RFU at 37° C. Surface RFU is defined as unquenched RFU at 37° C.−quenched RFU at 37° C.)/QE. QE (quenching efficiency) is defined as: 1−(Total RFU of 4° C. quenched sample/Total RFU of 4° C. unquenched sample). The % Internalization was determined from the following formula: (Total internalized RFU at 37° C./Total RFU at 37° C.)*100.

% Internalization [2]: 78.5% | Total Binding at 4° C. ([2]; 4° C.): 1800012 | Total Binding at 37° C. ([2]; 37° C.): 4110990 | Total Internalized RFU ([2]; 37° C.): 3226161 RFU
B1: H1H21227N-N297Q: "modified versions of 21227N (H1H21227N-N297Q and H1H21227N-N297D)"; anti-MSR1 antibody "with a N297Q single point mutation" (antibody, V domains shown)
VH: QVQLVQSGAEVKKPGASVKVSCKVSGYTLTELSIHWVRQVPGKGLEWMGGFDPEEGETIFAQEFRDRVTLTEDTSPDTAYMELSSLKSEDAAVYYCTTPRYCNNGICYDYWGQGTLVTVSS
VL: DIQMTQSPSSLSASVGDRVTITCRASQSISNYLNWYQQKPGKAPKLLIYTASSLQSGVPSRFSGSGSGTDFTLTISSLQTEDFATYYCQQSYSNFPITFGQGTRLEIKR
Ratio of 11 nM Antibody Binding Signal (RLU) to isotype control, HEK293.mfMSR1 [1]: 23

B2: H1H21227N-N297D: "The 21227N antibody was also produced as a third version with a N297D mutation" (antibody, V domains shown)
VH: B1 VH
VL: B1 VL
Ratio of 11 nM Antibody Binding Signal (RLU) to isotype control, HEK293.mfMSR1 [1]: 25

B3: H1H21227N: "anti-MSR1 antibodies ... (21227N, 21231N, 21234N) were produced with the original human Fcγ portion"; "H1H" = human IgG1 Fc (antibody, V domains shown)
VH: B1 VH
VL: B1 VL
modifications: human IgG1 Fc
notes: "anti-MSR1 antibodies ; (21227N, 21231N, 21234N) were produced with the original human Fcγ portion"; "H1H" = human IgG1 Fc
Ratio of 11 nM Antibody Binding Signal (RLU) to isotype control, HEK293.mfMSR1 [1]: 26
